In IntAct's records for PubMed 16963558:

B1: Non-structural protein 1 (Influenza A virus (strain A/Puerto Rico/8/1934 H1N1)), P03496 (parent)
chain: MDPNTVSSFQVDCFLWHVRKRVADQELGDAPFLDRLRRDQKSLRGRGSTLGLDIETATRAGKQIVERILKEESDEALKMTMASVPASRYLTDMTLEEMSRDWSMLIPKQKVAGPLCIRMDQAIMDKNIILKANFSVIFDRLETLILLRAFTEEGAIVGEISPLPSLPGHTAEDVKNAVGVLIGGLEWNDNTVRVSETLQRFAWRSSNENGRPPLTPKQKREMAGTIRSEV

Variants of: B1
Conditions: with p85b_human PIK3R2, O00459
Sequence of p85b_human PIK3R2, O00459 (O00459 whole entry): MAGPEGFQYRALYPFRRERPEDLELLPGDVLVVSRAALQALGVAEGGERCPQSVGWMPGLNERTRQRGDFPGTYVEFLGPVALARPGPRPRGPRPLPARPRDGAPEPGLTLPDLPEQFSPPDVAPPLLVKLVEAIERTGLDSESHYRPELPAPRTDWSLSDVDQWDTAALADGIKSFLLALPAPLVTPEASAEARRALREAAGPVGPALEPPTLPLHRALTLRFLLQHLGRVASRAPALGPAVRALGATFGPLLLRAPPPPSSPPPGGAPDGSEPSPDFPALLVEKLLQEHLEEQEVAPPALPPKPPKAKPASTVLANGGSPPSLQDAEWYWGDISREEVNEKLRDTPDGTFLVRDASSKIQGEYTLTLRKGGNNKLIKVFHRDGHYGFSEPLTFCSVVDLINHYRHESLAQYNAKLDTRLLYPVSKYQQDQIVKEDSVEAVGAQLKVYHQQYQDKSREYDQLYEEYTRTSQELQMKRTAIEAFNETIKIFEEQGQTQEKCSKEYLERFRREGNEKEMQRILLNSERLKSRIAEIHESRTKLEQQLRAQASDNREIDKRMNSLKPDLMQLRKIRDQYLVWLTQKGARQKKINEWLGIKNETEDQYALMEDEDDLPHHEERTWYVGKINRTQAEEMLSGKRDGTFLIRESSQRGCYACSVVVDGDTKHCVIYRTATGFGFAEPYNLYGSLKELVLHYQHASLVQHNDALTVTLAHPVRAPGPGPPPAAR
For Y89F, the “effect of a mutation on the interaction” value was “disrupting interaction strength”.
For M93A, the “effect of a mutation on the interaction” value was “disrupting interaction strength”.

Variants of: B1
Conditions: with p85b_bovin PIK3R2, P23726
Sequence of p85b_bovin PIK3R2, P23726 (P23726 whole entry): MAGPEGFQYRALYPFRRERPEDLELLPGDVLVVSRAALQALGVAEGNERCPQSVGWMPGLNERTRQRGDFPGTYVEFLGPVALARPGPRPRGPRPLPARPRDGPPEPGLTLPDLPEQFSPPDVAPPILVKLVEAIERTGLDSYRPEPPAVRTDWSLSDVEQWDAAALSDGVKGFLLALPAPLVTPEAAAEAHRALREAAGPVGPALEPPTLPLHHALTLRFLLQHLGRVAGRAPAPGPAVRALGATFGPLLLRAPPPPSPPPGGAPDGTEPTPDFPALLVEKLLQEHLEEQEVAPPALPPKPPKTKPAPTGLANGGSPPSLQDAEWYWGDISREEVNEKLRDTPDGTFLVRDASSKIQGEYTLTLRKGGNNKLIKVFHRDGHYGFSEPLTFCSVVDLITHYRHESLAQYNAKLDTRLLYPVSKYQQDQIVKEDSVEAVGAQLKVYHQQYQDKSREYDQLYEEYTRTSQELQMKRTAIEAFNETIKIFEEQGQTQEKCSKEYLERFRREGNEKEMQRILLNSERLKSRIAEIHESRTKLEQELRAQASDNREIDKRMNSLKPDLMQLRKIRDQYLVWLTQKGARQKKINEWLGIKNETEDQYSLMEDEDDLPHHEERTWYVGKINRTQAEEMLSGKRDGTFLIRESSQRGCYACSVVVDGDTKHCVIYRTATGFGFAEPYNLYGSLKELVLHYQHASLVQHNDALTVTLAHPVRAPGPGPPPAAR
With Y89F the “effect of a mutation on the interaction” value was “disrupting interaction strength”.
